# T1: Ste7 (Saccharomyces cerevisiae, UniProt P06784)
# T1 construct: made in house
# T1 sequence (P06784 1-515): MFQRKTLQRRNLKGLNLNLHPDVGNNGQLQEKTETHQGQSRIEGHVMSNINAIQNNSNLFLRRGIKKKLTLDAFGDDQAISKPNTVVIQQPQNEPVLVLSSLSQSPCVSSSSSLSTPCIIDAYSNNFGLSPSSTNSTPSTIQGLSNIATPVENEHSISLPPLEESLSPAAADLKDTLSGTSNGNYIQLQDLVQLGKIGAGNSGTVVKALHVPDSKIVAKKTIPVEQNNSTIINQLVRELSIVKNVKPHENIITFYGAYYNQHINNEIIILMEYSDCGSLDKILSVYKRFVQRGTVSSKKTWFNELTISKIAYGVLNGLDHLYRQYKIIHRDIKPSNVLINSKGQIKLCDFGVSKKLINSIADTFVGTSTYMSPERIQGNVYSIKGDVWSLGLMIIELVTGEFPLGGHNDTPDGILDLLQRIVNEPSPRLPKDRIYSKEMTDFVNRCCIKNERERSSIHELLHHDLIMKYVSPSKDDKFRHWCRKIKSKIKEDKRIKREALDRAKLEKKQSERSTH
# Legend:
# PKN1 = molecular target: T2, PKN1 (Homo sapiens, UniProt Q16512); experiment: In vitro ubiquitination of PKN1; format: biochemical, mammalian; conditions: GST-PKN1, E1, native ubiquitin, UbcH5B; anti-PKN1 antibodies
# T2 construct: purchased Invitrogen
# Protocol: To test whether SspH1 shares activities with IpaH9.8, a GST-SspH1 recombinant protein was purified. […] Ubiquitination of PKN1 by SspH1; SspH1, IpaH9.8, or IpaH9.8-C337A was incubated with E1, native ubiquitin, UbcH5B, and GST-PKN1 was tested.
# (§1) Reactions were incubated at 37° C. for 1 h and stopped by the addition of an equal volume of Laemmli sample buffer (62.5 mM Tris-Hcl, pH 6.8, 10% glycerol, 2% SDS, 0.0005% bromophenol blue) containing, or not, 100 mM DTT. Ubiquitination reactions were carried out in the same manner except that 2 μg of HA-tagged ubiquitin, ubiquitin, ubiquitin-48R or […] were used instead of biotinylated ubiquitin. […] Reaction mixtures were separated by SDS/PAGE, transferred onto a nitrocellulose membrane and probed with specific antibodies or peroxidase-coupled streptavidin when biotinylated ubiquitin was used.
# Ste7 = molecular target: T1, Ste7; experiment: In vitro ubiquitination of Ste7; format: biochemical; conditions: Ste7, Ste11-4, Kss1 complexes, native ubiquitin, E1, UbcH5B; anti-Ste7 antibodies
# Protocol: (§2) Thus, IpaH9.8 is an E3 ubiquitin ligase for Ste7; the proteasome-dependent disappearance of Ste7 in yeast was likely due to the degradation of Ste7 following its polyubiquitination by IpaH9.8 and IpaH7.8.
# as §1
# [1] = tested on: pheromone response MAPK pathway; experiment: Halo assay with α-factor disk; format: cell-based, Saccharomyces cerevisiae; conditions: wild-type yeast, exposure to α-factor
# Excerpt: (§3) To gain insight to IpaH9.8 activity, Saccharomyces cerevisiae was employed as a surrogate model. […] Detection of mating pheromone by a G protein-coupled receptor activates an archetypal MAPK signalling cascade, inducing both arrest of the cell cycle and transcription of mating genes. The pheromone α-factor diffusing from a disk causes cell cycle arrest in […] cells, resulting in a halo of inhibited growth (Hoffman et al., 2002).
# Standard media and techniques were used for transformation, maintenance, and growth of yeast (Guthrie C, 1991). Halo assays were performed as described (Hoffman et al., 2002) using disks impregnated with 15 μg of α-factor. erg6 ? yeast were transformed with plasmids encoding IpaH9.8 or IpaH9.8-C337A and grown in selective media containing 1% raffinose to mid log phase. Following addition of MG132 (100 μM) and galactose (2%), cultures were incubated for 2 h and cell extracts were prepared as described (Wang et al., 2003). β-Galactosidase assays were performed as described (Guarente, 1983).
# ubiquitin = molecular target: T3, ubiquitin (Homo sapiens, UniProt P0CG47); experiment: In vitro autoubiquitination; format: biochemical; conditions: E1, UbcH5B
# T3 construct: UbcH7, E1, ubiquitin, HA-ubiquitin, biotinylated ubiquitin, ubiquitin-K48R and -K63R; purchased Boston Biochem
# Protocol: The amide linkage, but not the thioesther linkage, of ubiquitin to ubiquitinated proteins is resistant to dithiothreitol (DTT).
# as §2, §1
# sst2Δ cells = experiment: Growth of sst2Δ yeast in the presence of pheromone; format: cell-based, Saccharomyces cerevisiae; conditions: galactose-induced production, α-factor plates
# UbcH5B = molecular target: T4, UbcH5B (Homo sapiens, UniProt P62837); experiment: In vitro removal of ubiquitin from ubiquitinated E2; format: biochemical; conditions: biotinylated ubiquitin, E1, UbcH5B
# T4 construct: His; made in house
# Protocol: The observation that the degradation of Ste7 promoted by IpaH9.8 is proteasome-dependent led us to test in vitro if IpaH9.8 might be involved in an ubiquitination pathway. It was discovered that the E2 enzyme UbcH5B was apparently not ubiquitinated by E1 in the presence of GST-IpaH9.8 (FIG. 2B).
# as §1
# HA-tagged ubiquitin [2] = molecular target: T5, HA-tagged ubiquitin (Homo sapiens, UniProt P0CG47); experiment: In vitro polyubiquitination of ubiquitin; format: biochemical; conditions: HA-ubiquitin, E1, UbcH5B; anti-HA antibodies
# T5 construct: multiples of the size of HA-ubiquitin (9 kDa); purchased Boston Biochem
# Protocol: (§4) Ubiquitin biotinylated on Lys residues can not support polyubiquitination reactions. To test if IpaH9.8 could polyubiquitinate proteins, reactions were performed using HA-tagged ubiquitin, instead of biotinylated ubiquitin.
# as §1
# HA-tagged ubiquitin [3] = experiment: In vitro polyubiquitination of ubiquitin; format: biochemical; conditions: K48R and K63R ubiquitin variants
# Protocol: as §4, §1
# [4] = tested on: pheromone response MAPK pathway; experiment: Pheromone-responsive FUS1-lacZ reporter (β-galactosidase); format: cell-based, Saccharomyces cerevisiae; conditions: wild-type yeast, exposure to α-factor
# Excerpt: as §3
# Invasive wild-type Shigella flexneri 5 M90T-Sm (Allaoui et al., 1992) and its mxiE derivative SF1060 (Mavris et al., 2002) were used for infection. Plasmids were propagated in Escherichia coli DH5α (end A1 hsdR17 sup E44 thi1 recA1 gyrA relA1 lacZYA-argF). To create JRY101, the integrating plasmid pFC23 (O'Rourke and Herskowitz, 1998) containing a FUS-lacZ transcriptional fusion was digested with SphI and transformed into BY4741; Leu+ colonies were tested for pheromone-responsive β-galactosidase production. JRY100 was constructed by PCR-mediated gene disruption in strain BY4741, replacing the entire open reading frame of UBP3 by the Nat marker, as described (Goldstein and McCusker, 1999; Longtine et al., 1998); the gene replacement was confirmed by PCR.
# Standard media and techniques were used for transformation, maintenance, and growth of yeast (Guthrie C, 1991). […]
# MAPKK Ste7 = experiment: Immunoblot of Ste7 amount in yeast; format: cell-based, Saccharomyces cerevisiae
# [5] = tested on: pheromone response pathway at or downstream of Ste11; experiment: FUS1-HIS3 reporter growth of strain SY2625 with Ste11-4; format: cell-based, Saccharomyces cerevisiae; conditions: SY2625 with plasmid encoding Ste11-4; medium lacking histidine with 3-amino triazole
# Excerpt: To identify the target of IpaH9.8, yeast strains were used that were altered in the signalling cascade. […] The constitutively active variant of the MAPKKK Ste11 encoded by the allele STE11-4 promotes elevated transcription of pheromone responsive genes, even in the absence of pheromone (Stevenson et al., 1992). Growth of the strain SY2625 harbouring a FUS1-HIS3 pheromone-inducible reporter is dependent on signalling through the pheromone response pathway on a medium lacking histidine and containing 3-amino triazole (Evangelista et al., 1997). SY2625 containing a plasmid encoding Ste11-4, but not those containing the vector, were His^+, consistent with activation of the pathway by Ste11-4 and transcription of FUS1-HIS3. […] Upon phosphorylation by Ste11, Ste7 is ubiquitinated and, following removal of ubiquitin chains by the specific deubiquitinase Ubp3, is degraded by the proteasome (Wang et al., 2003).
# [6] = tested on: pheromone response pathway downstream of Ste4; experiment: Growth arrest by overproduction of Ste4; format: cell-based, Saccharomyces cerevisiae
# T2 sequence (Q16512 whole entry): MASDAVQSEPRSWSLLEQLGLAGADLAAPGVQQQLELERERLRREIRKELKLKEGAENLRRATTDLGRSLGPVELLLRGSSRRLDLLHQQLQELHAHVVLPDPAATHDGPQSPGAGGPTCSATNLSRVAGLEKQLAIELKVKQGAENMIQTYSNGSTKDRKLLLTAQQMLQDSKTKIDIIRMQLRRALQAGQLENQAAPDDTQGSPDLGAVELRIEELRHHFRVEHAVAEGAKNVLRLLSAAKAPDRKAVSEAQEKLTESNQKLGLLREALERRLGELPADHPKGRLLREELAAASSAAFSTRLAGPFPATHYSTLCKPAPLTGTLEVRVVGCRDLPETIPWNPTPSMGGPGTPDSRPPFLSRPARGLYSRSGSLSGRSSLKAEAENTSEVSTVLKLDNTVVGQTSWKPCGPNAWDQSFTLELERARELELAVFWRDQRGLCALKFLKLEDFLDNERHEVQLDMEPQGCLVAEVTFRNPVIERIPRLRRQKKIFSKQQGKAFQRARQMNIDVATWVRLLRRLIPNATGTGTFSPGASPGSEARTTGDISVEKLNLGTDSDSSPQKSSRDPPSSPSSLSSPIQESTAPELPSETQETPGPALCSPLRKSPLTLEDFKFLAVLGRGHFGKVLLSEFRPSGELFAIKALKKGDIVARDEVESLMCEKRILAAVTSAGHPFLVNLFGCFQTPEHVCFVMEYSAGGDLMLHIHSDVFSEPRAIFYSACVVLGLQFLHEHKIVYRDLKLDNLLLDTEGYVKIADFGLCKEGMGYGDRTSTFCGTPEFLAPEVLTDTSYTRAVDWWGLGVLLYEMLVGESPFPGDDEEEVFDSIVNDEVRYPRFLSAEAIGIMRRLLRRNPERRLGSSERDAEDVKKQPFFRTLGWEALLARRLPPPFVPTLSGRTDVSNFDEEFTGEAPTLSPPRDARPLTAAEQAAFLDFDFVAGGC
# T4 sequence (P62837 whole entry): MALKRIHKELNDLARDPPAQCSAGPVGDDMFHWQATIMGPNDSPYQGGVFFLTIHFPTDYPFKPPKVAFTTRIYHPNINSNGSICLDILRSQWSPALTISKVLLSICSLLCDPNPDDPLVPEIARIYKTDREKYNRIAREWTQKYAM
Molecule,ubiquitination of PKN1 (PKN1),ubiquitination of Ste7 (Ste7),halo of inhibited growth [1],autoubiquitination (DTT-resistant ubiquitinated protein) (ubiquitin; biotinylated ubiquitin),"autoubiquitination (anti-IpaH antibodies) (ubiquitin; native ubiquitin, MAPK complexes)",growth of sst2Δ cells in the presence of pheromone (sst2Δ cells),removal of ubiquitin from ubiquitinated UbcH5B (UbcH5B),polyubiquitination of HA-tagged ubiquitin (HA-tagged ubiquitin [2]),linkage of polyubiquitin chains (HA-tagged ubiquitin [3]),expression of FUS1-lacZ reporter gene [4],disappearance of Ste7 (MAPKK Ste7; ubp3Δ and ste11Δ cells),"amount of Ste7 (MAPKK Ste7; wild-type yeast, regardless of stimulation by α-factor)",His phenotype (FUS1-HIS3 reporter) [5],rescue of growth arrest [6]
"SspH1: Salmonella enterica Typhimurium homologue of IpaH, type III secretion effector; GST-SspH1 recombinant protein (protein, left off: a dimerising Fc or GST) EFMLPINNNFSLPQNSFYNTISGTYADYFSAWDKWEKQALPGEERDEAVSRLKECLINNSDELRLDRLNLSSLPDNLPAQITLLNVSYNQLTNLPELPVTLKKLYSASNKLSELPVLPPALESLQVQHNELENLPALPDSLLTMNISYNEIVSLPSLPQALKNLRATRNFLTELPAFSEGNNPVVREYFFDRNQISHIPESILNLRNECSIHISDNPLSSHALQALQRLTSSPDYHGPRIYFSMSDGQQNTLHRPLADAVTAWFPENKQSDVSQIWHAFEHEEHANTFSAFLDRLSDTVSARNTSGFREQVAAWLEKLSASAELRQQSFAVAADATESCEDRVALTWNNLRKTLLVHQASEGLFDNDTGALLSLGREMFRLEILEDIARDKVRTLHFVDEIEVYLAFQTMLAEKLQLSTAVKEMRFYGVSGVTANDLRTAEAMVRSREENEFTDWFSLWGPWHAVLKRTEADRWAQAEEQKYEMLENEYPQRVADRLKASGLSGDADAEREAGAQVMRETEQQIYRQLTDEVLALRLFENGSQLHHS",detected an additional species migrating at a size >250 kDa,–,–,–,–,–,–,–,–,–,–,–,–,–
"IpaH9.8: Shigella flexneri type III secretion effector protein (SEQ ID NO: 4), E3 ubiquitin ligase; used FLAG-tagged in yeast, GST-fused in vitro (protein, listed as Shigella flexneri, FLAG tag or GST fusion, used FLAG-tagged in yeast, GST-fused in vitro) MLPINNNFSLPQNSFYNTISGTYADYFSAWDKWEKQALPGEERDEAVSRLKECLINNSDELRLDRLNLSSLPDNLPAQITLLNVSYNQLTNLPELPVTLKKLYSASNKLSELPVLPPALESLQVQHNELENLPALPDSLLTMNISYNEIVSLPSLPQALKNLRATRNFLTELPAFSEGNNPVVREYFFDRNQISHIPESILNLRNECSIHISDNPLSSHALQALQRLTSSPDYHGPRIYFSMSDGQQNTLHRPLADAVTAWFPENKQSDVSQIWHAFEHEEHANTFSAFLDRLSDTVSARNTSGFREQVAAWLEKLSASAELRQQSFAVAADATESCEDRVALTWNNLRKTLLVHQASEGLFDNDTGALLSLGREMFRLEILEDIARDKVRTLHFVDEIEVYLAFQTMLAEKLQLSTAVKEMRFYGVSGVTANDLRTAEAMVRSREENEFTDWFSLWGPWHAVLKRTEADRWAQAEEQKYEMLENEYPQRVADRLKASGLSGDADAEREAGAQVMRETEQQIYRQLTDEVLALRLSENGSQLHHS",–,larger species that formed only in the presence of IpaH9.8 were detected,failed to form a halo,a DTT-resistant ubiquitinated protein of the size of GST-IpaH9.8 (FIG. 3) was detected,Both the non- and mono-ubiquitinated forms of IpaH9.8 were detected,allowed sst2Δ cells to grow in the presence of pheromone,promoted the removal of ubiquitin from UbcH5B,detected a ladder of ubiquitinated proteins,"catalyzed the formation of polyubiquitin chains on Lys-48, but not Lys-63",failed to form a halo and to induce expression,still resulted in the disappearance of Ste7,drastically reduced,His^−,rescued this phenotype
